Tests used:
[1] = target: GARP / TGF-β1 Y336Q complex (human) (UniProt Q14392); experiment: flow cytometry on transfected 293T cells, 5 ug/ml; grade of Loss of binding read by footnote 2
[2] = target: GARP / TGF-β1 Y336Q complex (human) (UniProt Q14392); experiment: flow cytometry titration on transfected 293T cells; grade of Reduced avidity read by footnote 3
[3] = target: GARP / TGF-β1 Y336Q complex (human) (UniProt Q14392); experiment: FACS titration on transfected 293T; EC50 mutant / EC50 WT [cont.) B]
[4] = target: GARP / TGF-β1 Y336Q complex (human) (UniProt Q14392); experiment: FACS titration on transfected 293T; EC50 mutant / EC50 WT

Chain of GARP / TGF-β1 Y336Q complex (human) (Q14392 20-662, chain 1 of 2): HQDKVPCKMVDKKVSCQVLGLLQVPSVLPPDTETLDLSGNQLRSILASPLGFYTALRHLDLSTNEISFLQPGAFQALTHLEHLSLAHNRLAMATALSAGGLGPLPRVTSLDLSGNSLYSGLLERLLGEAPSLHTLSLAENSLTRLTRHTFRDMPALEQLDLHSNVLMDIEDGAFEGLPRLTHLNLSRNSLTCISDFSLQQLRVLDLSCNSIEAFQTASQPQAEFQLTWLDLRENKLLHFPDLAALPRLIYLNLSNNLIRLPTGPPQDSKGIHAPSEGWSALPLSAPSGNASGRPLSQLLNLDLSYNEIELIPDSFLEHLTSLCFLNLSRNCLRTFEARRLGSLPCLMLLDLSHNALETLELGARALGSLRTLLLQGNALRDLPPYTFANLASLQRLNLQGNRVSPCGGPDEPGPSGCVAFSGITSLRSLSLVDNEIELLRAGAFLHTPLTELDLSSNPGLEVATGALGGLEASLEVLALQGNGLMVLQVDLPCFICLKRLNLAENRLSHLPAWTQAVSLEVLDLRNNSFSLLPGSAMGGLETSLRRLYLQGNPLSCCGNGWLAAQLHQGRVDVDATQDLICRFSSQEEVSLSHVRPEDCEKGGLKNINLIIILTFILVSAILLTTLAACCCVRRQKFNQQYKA
Chain of GARP / TGF-β1 Y336Q complex (human) (P01137 30-390 Y336Q, chain 2 of 2, further chain): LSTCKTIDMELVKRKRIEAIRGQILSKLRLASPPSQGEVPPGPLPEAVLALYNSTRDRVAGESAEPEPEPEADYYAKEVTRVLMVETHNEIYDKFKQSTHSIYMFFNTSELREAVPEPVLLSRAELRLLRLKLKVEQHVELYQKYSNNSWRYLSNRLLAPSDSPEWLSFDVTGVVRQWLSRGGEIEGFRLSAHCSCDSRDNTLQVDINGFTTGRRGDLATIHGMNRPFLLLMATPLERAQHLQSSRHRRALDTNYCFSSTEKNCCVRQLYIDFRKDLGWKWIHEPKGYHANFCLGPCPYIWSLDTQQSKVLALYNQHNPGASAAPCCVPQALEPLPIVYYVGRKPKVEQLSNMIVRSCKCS

| Binder | residual binding on mutant by comparison to WT [1] [%] | ratio of EC50 (mutant vs WT) [2] | Ratio of EC50 (mutant / wt) [3] | Ratio of EC50 (mutant / wt) [4] |
| --- | --- | --- | --- | --- |
| LHG-10 (antibody, human IgG1, V domains shown) VH: EVQLVQPGAELRNSGASVKVSCKASGYRFTSYYIDWVRQAPGQGLEWMGRIDPEDGGTKYAQKFQGRVTFTADTSTSTAYVELSSLRSEDTAVYYCARNEWETVVVGDLMYEYEYWGQGTQVTVSS VL: DIQMTQSPTSLSASLGDRVTITCQASQSISSYLAWYQQKPGQAPKLLIYGASRLQTGVPSRFSGSGSGTSFTLTISGLEAEDAGTYYCQQYDSLPVTFGQGTKVELK | > 50 | < 2 | 1.1 |  |
| MHGARP8 (antibody, V domains shown) VH: QVQLKESGPGLVAPSQSLSITCTVSGFSLTGYGINWVRQPPGKGLEWLGMIWSDGSTDYNSVLTSRLRISKDNSNSQVFLKMNSLQVDDTARYYCARDRNYYDYDGAMDYWGQGTSVTVSS VL: DIQVTQSSSYLSVSLGDRVTITCKASDHIKNWLAWYQQKPGIAPRLLVSGATSLEAGVPSRFSGSGSGKNFTLSITSLQTEDVATYYCQQYWSTPWTFGGGTTLEIR | > 50 |  |  | 0.9 |
